Data reported in doi:10.1101/2020.09.24.310243.
Where two headings read alike, the source gives them in different places.

How the values were obtained:
[1] = target: E. coli DNA gyrase A2B2 complex (E. coli) (UniProt P0AES4)
[2] = target: [Alexa488]-QnrB1 (QnrB1-His labelled at the N-terminus with AlexaFluor 488); assay: fluorescence polarisation
[3] = target: [Alexa488]-QnrB1 (QnrB1-His labelled at the N-terminus with AlexaFluor 488); assay: fluorescence polarisation; remark: listed apart in the source
[4] = target: E. coli DNA gyrase subunit B, full-length, untagged (E. coli) (UniProt P0AES6)
[5] = target: E. coli DNA gyrase A2B2 complex (E. coli) (UniProt P0AES4); remark: listed apart in the source
[6] = target: GyrB 43 kDa domain (GyrB43), N-terminal ATPase/transducer domain of E. coli GyrB (E. coli)
[7] = target: E. coli DNA gyrase A2B2 complex (E. coli) (UniProt P0AES4); remark: listed apart in the source

Substance: AlbG with a thrombin-cleavable N-terminal hexahistidine tag (natural protein)
- rescue of gyrase supercoiling from 3.3 μM albicidin by AlbG, EC50 [1]: 1200 nM

Substance: E. coli DNA gyrase subunit B, full-length, untagged (from UniProt P0AES6 1-804) (natural protein)
- KdHi (high-affinity site of the two-site fit), with ADPNP [2]: 0.16 µM
- KdHi (high-affinity site of the two-site fit) [3]: 0.06 µM

Substance: E. coli DNA gyrase A2B2 complex (from UniProt P0AES4 1-875; P0AES6 1-804)
- Kd [2]: 1780 nM
- Kd [3]: 80 nM

Substance: GyrB 43 kDa domain (GyrB43), N-terminal ATPase/transducer domain of E. coli GyrB (domain or fragment)
- Kd [2]: 18000 nM
- Kd [3]: 1670 nM

Substance: QnrB1 with a C-terminal 6xHis tag (wild type, unlabelled) (natural protein)
- ATPase activity of the full-length GyrB subunit with QnrB1 (not shown) [4]: < 2 fold
- ATP hydrolysis rate of 50 nM gyrase A2B2 in the absence of DNA, with 5 μM QnrB1 [5]: 3 fold
- ATPase rate of 4 μM GyrB43 with 5 μM QnrB1 against no QnrB1 [6]: 17 fold
- inhibition of gyrase supercoiling by QnrB1 without CFX, IC50 [7]: 11000 nM
